First the molecules themselves.
B1: P450 BM3 (CYP102A1) (Priestia megaterium NBRC 15308 = ATCC 14581) (protein)
chain: MTIKEMPQPKTFGELKNLPLLNTDKPVQALMKIADELGEIFKFEAPGRVTRYLSSQRLIKEACDESRFDKNLSQALKFVRDFAGDGLFTSWTHEKNWKKAHNILLPSFSQQAMKGYHAMMVDIAVQLVQKWERLNADEHIEVPEDMTRLTLDTIGLCGFNYRFNSFYRDQPHPFITSMVRALDEAMNKLQRANPDDPAYDENKRQFQEDIKVMNDLVDKIIADRKASGEQSDDLLTHMLNGKDPETGEPLDDENIRYQIITFLIAGHETTSGLLSFALYFLVKNPHVLQKAAEEAARVLVDPVPSYKQVKQLKYVGMVLNEALRLWPTAPAFSLYAKEDTVLGGEYPLEKGDELMVLIPQLHRDKTIWGDDVEEFRPERFENPSAIPQHAFKPFGNGQRACIGQQFALHEATLVLGMMLKHFDFEDHTNYELDIKETLTLKPEGFVVKAKSKKIPLGGIPSPSTEQSAKKVRKKAENAHNTPLLVLYGSNMGTAEGTARDLADIAMSKGFAPQVATLDSHAGNLPREGAVLIVTASYNGHPPDNAKQFVDWLDQASADEVKGVRYSVFGCGDKNWATTYQKVPAFIDETLAAKGAENIADRGEADASDDFEGTYEEWREHMWSDVAAYFNLDIENSEDNKSTLSLQFVDSAADMPLAKMHGAFSTNVVASKELQQPGSARSTRHLEIELPKEASYQEGDHLGVIPRNYEGIVNRVTARFGLDASQQIRLEAEEEKLAHLPLAKTVSVEELLQYVELQDPVTRTQLRAMAAKTVCPPHKVELEALLEKQAYKEQVLAKRLTMLELLEKYPACEMKFSEFIALLPSIRPRYYSISSSPRVDEKQASITVSVVSGEAWSGYGEYKGIASNYLAELQEGDTITCFISTPQSEFTLPKDPETPLIMVGPGTGVAPFRGFVQARKQLKEQGQSLGEAHLYFGCRSPHEDYLYQEELENAQSEGIITLHTAFSRMPNQPKTYVQHVMEQDGKKLIELLDQGAHFYICGDGSQMAPAVEATLMKSYADVHQVSEADARLWLQQLEEKGRYAKDVWAG
B2: P450 BM3 (CYP102A1) (Priestia megaterium NBRC 15308 = ATCC 14581; N320L/T412V/T437A) (protein)
chain: B1 chain with N320L, T412V, T437A
B3: P450 BM3 (CYP102A1) (Priestia megaterium NBRC 15308 = ATCC 14581; N320L/T437A) (protein)
chain: B1 chain with N320L, T437A
B4: P450 BM3 (CYP102A1) (Priestia megaterium NBRC 15308 = ATCC 14581; N320L/T412V) (protein)
chain: B1 chain with N320L, T412V
B5: P450 BM3 (CYP102A1) (Priestia megaterium NBRC 15308 = ATCC 14581; T412V/T437A) (protein)
chain: B1 chain with T412V, T437A

Changes are numbered by the printed parent chain. Names and notes keep the numbering of the source.

Substrate in the data set: CC1=CC(=O)CC(C)(C)C1
As to the kind of experiment: purified protein. Conditions: 1 μM enzyme, 1 mM NADPH, KPi 50 mM pH 7.4, 2-50 mM substrate, 30.0 °C.
The term Km denotes the substrate concentration at which the rate is half of its maximum. For B1, the Km was determined as 10.95 ± 0.80 mmol/L.
The figure for B2 is 8.29 ± 0.77 mmol/L; for B3 it is 10.09 ± 0.18 mmol/L; for B4 it is 17.67 ± 0.46 mmol/L.
Regarding B5, the Michaelis constant (Km) was determined as 11.39 ± 0.84 mmol/L.

Source of the values: paper PMC9302676.
